Measurements: patent US20230228751 (APTAMER DIAGNOSTICS LIMITED, published 2023)

Experiments:
[1] = molecular target: SARS-CoV-2 spike S2 subunit (SARS-CoV-2, UniProt P0DTC2 SEQ:1-528); experiment: BLI; conditions: label: 5'-biotin
[2] = molecular target: T1, SARS-CoV-2 spike S1 subunit (SARS-CoV-2, UniProt P0DTC2 SEQ:1-670); experiment: BLI; conditions: tags: His tag, SinoBiological 40591-V08B1; label: 5'-biotin
SARS-CoV-2 spike RBD = SARS-CoV-2 spike RBD (SARS-CoV-2, UniProt P0DTC2 SEQ:1-223); experiment: BLI; conditions: tags: His tag, SinoBiological 40592-V08H
[3] = molecular target: SARS-CoV spike S1 subunit (SARS-CoV, UniProt P59594 SEQ:14-667); experiment: BLI; conditions: tags: SinoBiological
[4] = molecular target: SARS-CoV-2 spike protein trimer (SARS-CoV-2, UniProt P0DTC2); experiment: ELONA
Method: One ELONA plate (immobilised with the S1 binding aptamer A3) was then incubated with a fixed concentration (0.5 μM) of either the aptamer population isolated against the S2 subunit of the SARS-CoV-2 spike protein (S2_8R pool) or full-length aptamer clones S2_A2 (SEQ ID NO: 146), S2_B1 (SEQ ID NO: 150) and S2_G1 (SEQ ID NO: 171) (FIG. 16).

[5] = molecular target: T1, SARS-CoV-2 spike S1 subunit; experiment: BLI; conditions: tags: His tag, SinoBiological 40591-V08B1; label: 5'-biotin; remark: listed apart in the source
Method: The affinity of four chosen aptamers (aptamer S1_A3-A (SEQ ID NO: 4); aptamer S1_A6 (SEQ ID NO: 8); aptamer S1_A8 (SEQ ID NO: 9); aptamer S1_F2 (SEQ ID NO: 43)) was determined using the BLI assay according to the protocol described above. The biotinylated aptamers were immobilised onto streptavidin biosensor probes (as described above) and then interaction monitored with a concentration series of SARS-CoV-2 Spike protein S1 (250 nM, 125 nM, 62.5 nM, 31.25 nM, 15.63 nM, 7.81 nM, 0 nM diluted in 1× ‘high salt’ aptamer selection buffer). KD values were calculated using the ForteBio software (ForteBio Data Analysis 8.0,), using a 2:1 binding model (FIGS. 6 & 7).

Binder | binding result [2] | binding result (SARS-CoV-2 spike RBD; label: 5' biotin) | binding result ([3]; label: 5' biotin) | also measured
TTGACCTCTGGATATGGGTGGGAGGGATGGGT (ssDNA) [S2_G1_F21] |  |  |  | binding result [1]: binds
S1_C12 (ssDNA) DNA: CCAGTGTAGACTACTCAATGCGTGGGAAGGGTGGGTGGGAGCATTGATAACTCGGAGGAGCGTACTATCCACAGGTCAACC | binds | binds | no binding | 
S1_F12 (ssDNA) DNA: CCAGTGTAGACTACTCAATGCGTGGGAAGGGAGGGCGGGAGCATTGATAACTCGGAGGAGCGTACTATCCACAGGTCAACC | binds | binds | no binding | 
S1_F3-B (ssDNA) DNA: CCAGTGTAGACTACTCAATGCGTGGGATGGGTGGGTGGGAGCATTGATAACTCGGAGGAGCGTACTATCCACAGGTCAACC | binds | binds | no binding | 
S2_A2 (ssDNA) DNA: CCAGTGTAGACTACTCAATGCCGATGGGTCGGGGGGGTGGGTAGGCATTGATCGCTCCTTTCGTACTATCCACAGGTCAACC |  |  |  | binding result [1]: binds; binding result [4]: binds
S1_C3-B (ssDNA) DNA: CCAGTGTAGACTACTCAATGCCGATGGGTCGGGGGGGTGGGTAGGCATTGATCGCTCCTTCCGTACTATCCACAGGTCAACC | binds | binds | no binding | 
S1_D4 (ssDNA) DNA: CCAGTGTAGACTACTCAATGCGGCTTCGGGAGGGGGGGCGGGTAAAAAGCCCATTGCCCTAGTACTATCCACAGGTCAACC | binds | binds | no binding | 
S1_E9 (ssDNA) DNA: CCAGTGTAGACTACTCAATGCGGCTTCGAGAGGGGGGGCGGGTAAAAAGTCCATTGCCCTAGTACTATCCACAGGTCAACC | binds | binds | no binding | 
S1_A6 (ssDNA) DNA: CCAGTGTAGACTACTCAATGCTGTTATGACTTGACCTTGGGTTATGGGTTTGGGCGGGAGGGTACTATCCACAGGTCAACC |  |  |  | binding result [5]: binds; binding result (SARS-CoV-2 spike RBD; label: 5'-biotin): binds; binding result ([3]; label: 5'-biotin): no binding
S1_E10 (ssDNA) DNA: CCAGTGTAGACTACTCAATGCTGTGTTGACTTGACCTTGGATTATGGGTTTGGGCGGGAGGGTACTATCCACAGGTCAACC | binds | binds | no binding | 
S2_B1_F12 (ssDNA) DNA: CCAGTGTAGACTACTCAATGCCGTGGACTGGTCGGGTTTGGATTCGGCAGATGAATCAGTAGTA |  |  |  | binding result [1]: binds
S1_D2 (ssDNA) DNA: CCAGTGTAGACTACTCAATGCTAGGTCCGTGGGATGGGTGGGGGGGAGGACCAGCCAGCGAGTACTATCCACAGGTCAACC | binds | binds | no binding | 
S1_F3-A (ssDNA) DNA: CCAGTGTAGACTACTCAATGCGGTATGAATATGATCGGCCCTATCCCTTCAGCTATTCCGGGTACTATCCACAGGTCAACC | binds | binds | no binding | 
S2_B1 (ssDNA) DNA: CCAGTGTAGACTACTCAATGCCGTGGACTGGTCGGGTTTGGATTCGGCAGATGAATCAGTAGTACTATCCACAGGTCAACC |  |  |  | binding result [1]: binds; binding result [4]: binds
S1_D8 (ssDNA) DNA: CAGTGTAAGACTACTCAATGCCGTGGACTGGTCGGGTTTGGATTCGGCAGATGAATCAGTAGTACTATCCACAGGTCAACC | binds | binds | no binding | 
S1_C11 (ssDNA) DNA: CCAGTGTAGACTACTCAATGCCGTGGACTGGTCGGGTTTGGATTCGGCAGATGAATCCAGTAGTACTATCCACAGGTCAACC | binds | binds | no binding | 
S2_A2_F12 (ssDNA) DNA: CCAGTGTAGACTACTCAATGCCGATGGGTCGGGGGGGTGGGTAGGCATTGATCGCTCCTTTCGT |  |  |  | binding result [1]: binds
S1_F2 (ssDNA) DNA: CCAGTGTAGACTACTCAATGCTGCGTTGACTTGATCCTGTGGTATATGGGTGGGAGGGTCGGGTACTATCCACAGGTCAACC |  |  |  | binding result [5]: binds; binding result (SARS-CoV-2 spike RBD; label: 5'-biotin): binds; binding result ([3]; label: 5'-biotin): no binding
S1_A8 (ssDNA) DNA: CCAGTGTAGACTACTCAATGCTGTGTTGACTTGATCCTGTGGTATATGGGTGGGAGGGTCGGGTACTATCCACAGGTCAACC |  |  |  | binding result [5]: binds; binding result (SARS-CoV-2 spike RBD; label: 5'-biotin): binds; binding result ([3]; label: 5'-biotin): no binding
S1_F11 (ssDNA) DNA: CCAGTGTAGACTACTCAATGCGTGGGAAGGGTGGGCGGGAGCATTGATAACTTCGGAGGAGCGTACTATCCACAGGTCAACC | binds | binds | no binding | 
S1_C4 (ssDNA) DNA: CCAGTGTAGACTACTCAATGCTACTGATTCATCTGCCGAATCCAAACCCGACCAGTCCACGGTACTATCCACAGGTCAACC | binds | binds | no binding | 
S1_F5 (ssDNA) DNA: CCAGTGTAGACTACTCAATGCGTGTGGTAACCTTGACCTTGGATTATGGGTTTGGGCGGGCGGGTACTATCCACAGGTCAACC | binds | binds | no binding | 
S1_E2 (ssDNA) DNA: CCAGTGTAGACTACTCAATGCGTGTGGTGACCTTGACCTCTGGATATGGGTGGGAGGGGCGGGTACTATCCACAGGTCAACC | binds | binds | no binding | 
S1_D1 (ssDNA) DNA: CCAGTGTAGACTACTCAATGCATTCCTTTTGCTACCTATATTCCGTCTCCAGCATAATCCCGTACTATCCACAGGTCAACC | binds | binds | no binding | 
